Columns and labels:
human CD5 = target: T1, human CD5 (human, UniProt P06127 25-495); test: cell microarray (Retrogenix): labelled CAR T cells on fixed HEK293 cells expressing human membrane proteins; library and confirmation screen
T1 construct: whole, on cells; also called primary target CD5
T1 sequence (looked up): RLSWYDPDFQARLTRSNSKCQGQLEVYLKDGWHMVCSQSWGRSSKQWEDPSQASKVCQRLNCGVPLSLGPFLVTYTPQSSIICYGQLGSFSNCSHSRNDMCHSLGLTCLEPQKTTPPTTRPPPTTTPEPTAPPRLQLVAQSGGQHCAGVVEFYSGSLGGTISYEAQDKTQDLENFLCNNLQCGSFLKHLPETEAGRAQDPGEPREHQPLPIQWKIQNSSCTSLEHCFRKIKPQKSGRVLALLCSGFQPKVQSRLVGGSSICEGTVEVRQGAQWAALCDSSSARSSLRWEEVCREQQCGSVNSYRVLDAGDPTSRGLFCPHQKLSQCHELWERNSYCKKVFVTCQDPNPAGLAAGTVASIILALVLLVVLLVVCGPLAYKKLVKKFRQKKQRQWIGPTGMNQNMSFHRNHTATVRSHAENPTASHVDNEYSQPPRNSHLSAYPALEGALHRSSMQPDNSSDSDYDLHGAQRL
Source text: CART5 on- and off-targeting specificity analysis: For a library screen, CD5 KO CART5 cells were fluorescently labelled and screened for binding against fixed HEK293 cells/slides expressing 5828 human plasma membrane proteins and cell surface tethered human secreted proteins+398 human heterodimers in duplicates (18 slide sets, n=2 slides per slide set, 3.2×10⁷ cells/slide). In total, 22 primary hits (duplicate spots) were identified by analyzing fluorescence (Alexa Fluor 647 and ZsGreen1) on ImageQuant. There were a range of intensities (signal to background) from very weak to strong. A confirmation screen was performed by testing Mock KO UTD and CD5 KO CART5 cell binding against all 22 hits in duplicate on new slides. Library and confirmation screens as well as analyses were performed at Retrogenix, Charles River Laboratories.

[1] = target: T2, recombinant human CD5 protein conjugated to a polyhistidine (His) tag at the C-terminus (Sino Biologicals); … (human, UniProt P06127 25-372); test: flow cytometry on CAR T cells, APC anti-6x His-tag secondary antibody
T2 construct: Bought reagent; also called recombinant CD5 protein; not shown: C-terminal polyhistidine tag
T2 sequence (looked up): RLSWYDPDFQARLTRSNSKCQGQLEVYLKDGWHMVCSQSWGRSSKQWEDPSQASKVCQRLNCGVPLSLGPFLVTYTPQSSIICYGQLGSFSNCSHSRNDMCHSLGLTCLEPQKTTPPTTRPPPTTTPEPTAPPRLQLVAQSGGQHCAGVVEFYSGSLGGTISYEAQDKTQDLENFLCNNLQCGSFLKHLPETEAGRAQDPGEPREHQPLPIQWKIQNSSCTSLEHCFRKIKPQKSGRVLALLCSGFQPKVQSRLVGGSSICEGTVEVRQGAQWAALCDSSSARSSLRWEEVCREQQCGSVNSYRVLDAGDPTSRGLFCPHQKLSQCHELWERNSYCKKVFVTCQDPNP
Source text: General flow cytometry: Cells were resuspended in FACS staining buffer (phosphate buffered saline (PBS)+2% FBS) using one or more of the following antibodies: CD5 (UCHT2; BioLegend; Cat #300612), CD4, CD8 (RPA-T8; BD Biosciences; Cat #563795), CD45RA (L48; BD Biosciences; Cat #347723), CCR7 (G043H7; BioLegend; Cat #353214), PD1 (EH12.1; BD Biosciences; Cat #562516), LAG3 (3DS223H; Invitrogen; Cat #11-2239-42), CD3 (UCHT1; BD Biosciences; Cat #565119 or OKT3; BioLegend; Cat #317334), hCD45 (2D1; BioLegend; Cat #368522), or mCD45. CAR5 was detected by incubating cells with recombinant human CD5 protein conjugated to a polyhistidine (His) tag at the C-terminus (Sino Biologicals; Cat #11027-H08H) followed by an Allophycocyanin (APC) anti-6× His-tag secondary antibody (Abcam; Cat #ab72579). CARmeso was detected using a Biotin-SP goat anti-human F(ab′)₂ antibody (Jackson ImmunoResearch; Cat #109-066-097) followed by an R-Phycoerythrin (PE) streptavidin secondary antibody (Jackson ImmunoResearch; Cat #016-110-084). All changes in overall tumor or T cell counts reflected by absolute cell counts were determined using Flow-Count Fluorospheres (Beckman; Cat #754053). Cell viability was established using ViaKrome 808 Fixable Viability Dye (Beckman; Cat #C36628) and data were acquired on an LSRII Fortessa Cytometer (BD) or CytoFlex LX Flow Cytometer (Beckman). […]

- binding result (human CD5): binds
- binding result [1]: binds
B1: CD5-17H2L-3054 CAR (anti-CD5 chimeric antigen receptor, clone #17, heavy-to-light chain orientation) (other)
chain: GSEVQLVESGPGLVQPSQSLSITCTVSGFSLTNYDVHWVRQSPGKGLEWLGVIWNYGNTDYNAAFISRLSIRKDSSKSQVFFTMSSLQTPDTAIYYCARNHGDGYYNWYFDVWGTGTTVTVSSGGGGSGGGGSGGGGSNIVLTQSPSSLSESLGGKVTITCKASQDINKYIAWYQYKPGKGPRLLIHYTSTLQPGIPSRFSGSGSGRDYSFSISNLEPEDIATYYCLQYDNLWTFGGGTKLEIKSRTTTPAPRPPTPAPTIASQPLSLRPEACRPAAGGAVHTRGLDFACDIYIWAPLAGTCGVLLLSLVITLYCHMKRGRKKLLYIFKQPFMRPVQTTQEEDGCSCRFPEEEEGGCELTSRVKFSRSADAPAYQQGQNQLYNELNLGRREEYDVLDKRRGRDPEMGGKPRRKNPQEGLYNELQKDKMAEAYSEIGMKGERRRGKGHDGLYQGLSTATKDTYDALHMQALPPR
notes: also called CAR5; anti-CD5 CAR

From patent publication US20250064852A1 (University of Pennsylvania, published 2025)
